Broadly, the EC50 is the concentration at which the effect is half-maximal.

In experiment [1] the target is T1, 6xHis-SUMO-TDP-43 (220-414) (human, UniProt Q13148 220-414).
T1 construct: Captured on the plate by an anti-6xHis antibody; also called 6xHis/SUMO tagged truncated TDP-43; not shown: N-terminal 6xHis and SUMO tags from a modified pET19-b vector
The experiment in a line: capture ELISA, antigen held by anti-6xHis antibody. The procedure:
(§1) Non-specific binding sites were blocked for 1 hr at RT with PBS containing 1% BSA (Sigma) and 0.05% Tween-20 (Fisher Scientific). 6×His-SUMO-TDP43 proteins at a concentration of 1.7 μM were allowed to bind to antibody-coated plates for 1 hr at RT in PBS buffer containing 1% BSA, 300 mM arginine and 0.1% PEG 5000, pH 7.5. Plates were incubated for 1 hr at RT with human antibodies of present invention, titrated in a three-fold dilution series, followed by HRP conjugated anti-human IgG Fc γ (Jackson ImmunoResearch) in PBST containing 1% BSA. HRP activity was measured in a standard colorimetric assay. EC₅₀ values were calculated using a four-parameter logistic curve fit on Softmax pro software (Molecular Devices).
(§2) We measured the binding affinity of the human-derived TDP-43 specific antibodies provided herein to properly folded 6×His/SUMO tagged TDP-43 using a capture ELISA in which native TDP-43 was immobilized without direct adsorption on the surface of the ELISA plate. This was achieved by immobilizing an anti 6×His antibody which then captured native TDP-43. […] After this immobilization step, binding by human antibodies was tested in regular buffers without interference of TDP-43 aggregation.
Background: In an ELISA, binding on a coated surface is turned into a signal by an enzyme label.

The target in experiment [2] is T2, 6xHis-SUMO-TDP-43 (1-414), properly folded full length (human, UniProt Q13148 1-414).
T2 construct: Purified with KSCN and arginine, monomeric; captured on the plate by an anti-6xHis antibody; also called folded full-length TDP-43; 6xHis/SUMO tagged full length TDP-43; not shown: N-terminal 6xHis and SUMO tags from a modified pET19-b vector
The experiment in a line: capture ELISA, antigen held by anti-6xHis antibody. The procedure: as §1, §2

The target in experiment [3] is T3, recombinant full-length His-tagged human TDP-43 (2-414) (human, UniProt Q13148 2-414).
T3 construct: Amino terminal His tag, made in E. coli, purified in 8 M urea; also called full length TDP-43; full-length TDP-43
The experiment in a line: direct ELISA, coated antigen. As for the experimental part: (§3) The half maximal effective concentration (EC₅₀) of the human-derived TDP-43-specific antibodies for human TDP-43 and their target target-specificity was determined substantially as described in Example 2 above. Briefly, 96 well microplates (Corning) were coated with recombinant full length TDP-43 (Biogen Idec, USA), Escherichia coli extract and BSA (Sigma, Buchs, Switzerland), diluted to a concentration of 5 μg/ml in carbonate ELISA coating buffer (pH 9.6) overnight at 4° C. […] Non-specific binding sites were blocked for 1 hr. at room temperature with PBS containing 2% BSA (Sigma, Buchs, Switzerland). Human TDP-43-specific antibodies were diluted to the indicated concentrations and incubated 1 hr. at room temperature. Binding was determined using a donkey anti-human IgGγ-specific secondary antibody conjugated with HRP (Jackson ImmunoResearch, USA), followed by measurement of HRP activity in a standard colorimetric assay. EC₅₀ values were estimated by a non-linear regression using GraphPad Prism software (San Diego, USA).

Experiment [4] deals with T3, recombinant full-length His-tagged …. The experiment in a line: direct ELISA, coated antigen. The procedure:
as §3
The source holds these as a separate data set.

Experiment [5] addresses T4, His-huTDP-43 domain IV (amino acid residues 258-414) (human, UniProt Q13148 258-414).
T4 construct: Amino terminal His-tagged fragment, E. coli, solubilized in 8 M urea; also called Glycine-rich domain
The experiment in a line: direct ELISA, His-tagged TDP-43 fragments coated at 6.6 ug/ml, OD 450. As for the experimental part:
(§4) Non-specific binding sites were blocked for 1 hr. at room temperature with PBST containing 2% BSA (Sigma, Buchs, Switzerland). Antibodies were incubated 1 hr. at room temperature. Binding was determined using either a donkey anti-human IgGγ-specific antibody conjugated with HRP (Jackson ImmunoResearch, USA) or a goat-anti mouse IgG (H+L)-specific secondary antibody conjugated with HRP (Jackson ImmunoResearch, USA)., followed by measurement of HRP activity in a standard colorimetric assay.

The target in experiment [6] is T5, His-huTDP-43 domain II (amino acid residues 99-204) (human).
T5 construct: Amino terminal His-tagged fragment, E. coli
T5 chain: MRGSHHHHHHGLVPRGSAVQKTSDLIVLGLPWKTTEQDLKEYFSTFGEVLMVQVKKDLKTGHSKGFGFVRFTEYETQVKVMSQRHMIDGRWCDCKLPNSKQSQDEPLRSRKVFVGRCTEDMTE
The description is as above. As for the experimental part: as §4

Experiment [7] addresses T6, His-huTDP-43 domain I (amino acid residues 2-106) (human).
T6 construct: Amino terminal His-tagged fragment, E. coli; also called N-terminal domain
T6 chain: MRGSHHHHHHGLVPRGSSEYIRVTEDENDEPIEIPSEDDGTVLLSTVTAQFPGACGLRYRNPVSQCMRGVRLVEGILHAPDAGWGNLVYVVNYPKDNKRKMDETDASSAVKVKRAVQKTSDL
Described as above. The procedure: as §4

Experiment [8] concerns the target T7, His-huTDP-43 domain III (amino acid residues 183-273) (human).
T7 construct: Amino terminal His-tagged fragment, E. coli
T7 chain: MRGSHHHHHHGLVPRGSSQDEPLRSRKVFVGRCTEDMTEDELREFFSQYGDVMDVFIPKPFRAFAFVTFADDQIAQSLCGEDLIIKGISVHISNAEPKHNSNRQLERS
In words: Western blot. As for the experimental part:
(§5) Non-specific binding sites were blocked for 1 hr. at room temperature with PBST containing 2% BSA (Sigma, Buchs, Switzerland). Blots were incubated overnight with primary antibodies (10 nM) followed by either a donkey anti-human IgGγ-specific secondary antibody conjugated with HRP (Jackson ImmunoResearch, USA) or a goat-anti mouse IgG (H+L)-specific secondary antibody conjugated with HRP (Jackson ImmunoResearch, USA). Blots were developed using ECL and ImageQuant 350 detection (GE Healthcare, Otelfingen, Switzerland).
(§6) Commercially available TDP-43 specific antibody TARDBP (M01), clone 2E2-D3 (Abnova, Taiwan) was used as positive control for human TDP-43 detection whereas, an anti-human IgG Fcγ-specific antibody was used as a negative control. Binding of the human-derived antibodies to specific TDP-43 domains was determined by Western Blot analysis.
Background: A western blot detects proteins with antibodies after separation by electrophoresis.

In another experiment the target is T8, BSA (bovine, UniProt P02769).
T8 construct: control coating in the EC50 ELISA; also called bovine serum albumin (Sigma, Buchs, Switzerland)
In words: direct ELISA, BSA coated at 5 ug/ml as control, OD 450. As for the experimental part:
as §3, with “To determine the” for “The”, “to evaluate target-specificity,” for “their target target-specificity was determined substantially as described in Example 2 above. Briefly,”
The half maximal effective concentration (EC₅₀) of the human-derived TDP-43-specific antibodies for human TDP-43 and their target target-specificity was determined substantially as described in Example 2 above. […]

Experiment [9] concerns the target T5, His-huTDP-43 domain II (amino acid …). In words: Western blot, 300 ng recombinant protein per lane, primary antibody 10 nM. As for the experimental part: as §5
The target in experiment [10] is T6, His-huTDP-43 domain I (amino acid …). The experiment is described as above. As for the experimental part: as §5
The target of experiment [11] is T7, His-huTDP-43 domain III (amino acid …). The experiment is described as above. The procedure:
as §5

Experiment [12] shares this target. In words: direct ELISA, His-tagged TDP-43 fragments coated at 6.6 ug/ml, OD 450. The procedure:
as §4

Experiment [13] concerns the target T5, His-huTDP-43 domain II (amino acid …). The experiment in a line: Western blot. As for the experimental part:
as §5, §6

Where two headings read alike, the source gives them in different places. Bounds are passed on as bounds.

T2 sequence (Q13148 whole entry): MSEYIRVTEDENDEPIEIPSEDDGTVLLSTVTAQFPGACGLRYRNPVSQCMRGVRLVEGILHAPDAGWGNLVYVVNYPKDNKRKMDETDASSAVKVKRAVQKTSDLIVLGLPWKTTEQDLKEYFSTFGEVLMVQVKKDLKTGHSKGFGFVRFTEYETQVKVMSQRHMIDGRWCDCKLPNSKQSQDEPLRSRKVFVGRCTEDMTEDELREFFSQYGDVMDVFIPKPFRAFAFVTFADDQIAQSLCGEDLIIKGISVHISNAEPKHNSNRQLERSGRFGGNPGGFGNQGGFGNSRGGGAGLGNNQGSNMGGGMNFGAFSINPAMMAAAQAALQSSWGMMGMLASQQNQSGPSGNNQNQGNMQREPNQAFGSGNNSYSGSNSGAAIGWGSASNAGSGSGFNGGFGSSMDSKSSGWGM
T4 sequence (Q13148 other isoform, or with tags, fused parts or gaps limits assumed): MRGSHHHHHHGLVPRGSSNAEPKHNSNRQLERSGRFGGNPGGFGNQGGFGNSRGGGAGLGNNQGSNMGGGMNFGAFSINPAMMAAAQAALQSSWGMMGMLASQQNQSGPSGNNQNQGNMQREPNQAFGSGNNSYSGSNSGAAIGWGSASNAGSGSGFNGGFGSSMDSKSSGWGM
T1 sequence (Q13148 220-414): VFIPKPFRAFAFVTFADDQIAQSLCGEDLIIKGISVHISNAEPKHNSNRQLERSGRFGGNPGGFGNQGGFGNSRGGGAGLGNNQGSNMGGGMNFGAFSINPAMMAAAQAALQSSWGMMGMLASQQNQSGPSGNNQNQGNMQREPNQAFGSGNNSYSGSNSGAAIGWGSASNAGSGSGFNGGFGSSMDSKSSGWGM
T8 sequence (P02769 25-607 limits assumed): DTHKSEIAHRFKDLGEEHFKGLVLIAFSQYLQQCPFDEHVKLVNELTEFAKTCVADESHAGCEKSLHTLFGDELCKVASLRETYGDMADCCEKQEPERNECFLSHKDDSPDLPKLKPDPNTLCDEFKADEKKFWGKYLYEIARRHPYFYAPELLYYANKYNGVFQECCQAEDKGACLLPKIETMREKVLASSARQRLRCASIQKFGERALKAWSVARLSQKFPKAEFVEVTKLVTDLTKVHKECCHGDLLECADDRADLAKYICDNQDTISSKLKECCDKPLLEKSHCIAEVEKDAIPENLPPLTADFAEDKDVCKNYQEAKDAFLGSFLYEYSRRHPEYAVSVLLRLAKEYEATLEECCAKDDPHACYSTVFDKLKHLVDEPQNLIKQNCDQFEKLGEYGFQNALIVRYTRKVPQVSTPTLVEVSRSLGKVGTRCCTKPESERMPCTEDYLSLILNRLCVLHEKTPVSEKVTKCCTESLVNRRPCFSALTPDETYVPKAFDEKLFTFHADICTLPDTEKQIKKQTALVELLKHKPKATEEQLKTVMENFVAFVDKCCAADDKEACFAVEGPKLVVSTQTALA

B1: NI-205.51C1 (antibody, human IgG1, V domains shown)
VH: EVQLVESGGGLVQPGGSLRISCTTSGFIFSDYWMHWVRQAPGKGLTWVSRINLDGSDTIYADSVKGRFTISRDNDKNTLYLQMNSLRVEDTAIYYCARSRKSVWGQGTMVTVSS
VL: QSALTQPASVSGSPGQSITISCTGSNTDVGAYDYVSWSQQLPGKAPKFVIFDVDVRPSGISDRFSGSKSGNTASLTISGLQAEDEADYYCSSYTKSGTLVFGGGTKVTVV
notes: Human-derived
Regarding B1, the binding result in [1] is listed as “no binding”; in experiment [5] it was “no binding”; in [6], “no binding”; in experiment [7], “no binding”; in experiment [8] it was “binds”. Moreover, the EC50 turned out to be 1.1 nM in experiment [2], 0.18 nM in experiment [3] and 0.18 nM in experiment [4].

B2: NI-205.3F10 (antibody, human IgG1, V domains shown)
VH: EVQLLESGGDLVQPGGSLRLSCAASGFTFSSQAMSWVRQAPGKGLEWVSALSRTGDYTWYADSVRGRFTVSRDDSKNIFYLEMNSLRAEDTAVYYCAKNYYSSFGYNWAAFHIWGQGTMVTVSS
VL: EIVLTQSPGTLSLSPGERATLSCRASQDVNNNYLAWYQQKPGQAPRLLIYGASRRATGVPDRFSGRGSGTDFTLTINRLEPEDFAMYFCQQYGGSPPYTFGQGTKLEIK
notes: Human-derived
B2: the binding result is reported as “no binding” in experiment [1]; “no binding” in [5]; “no binding” in [6]; “no binding” in experiment [7]; “binds” in [8]. Moreover, the EC50 in experiment [2] was > 90 nM; in experiment [3], 1.4 nM; in experiment [4] it was 1.4 to 2.8 nM.

B3: NI-205.21G1 (antibody, human IgG1, V domains shown)
VH: QVQLVESGGGVVQPGMSLRLSCAASGFSFSSHGMHWVRQTPGKGLEWLAVISYDASNKSYADSVKGRFTISRDNSKKTLYLQMDSLRVEDTALYYCANAFSSSASGGYWGQGTLVTVSS
VL: DVVMTQSPLSLPVTLGQPASISCRSSQSLVHSDGVTYLNWFQQRPGQSPRRLIYKVSNRDSGVPDRFSGSGSGTDFTLEISRVEAEDVGIYYCMQGTHWPPWTFGQGTKVEIK
notes: Human-derived; also called NI-21G1
For the molecule B3, the binding result is “no binding (tested: about 4x10^5 pM)” with BSA, “no binding (tested: 10 nM)” in experiment [9], “no binding (tested: 10 nM)” in experiment [10] and “no binding (tested: 10 nM)” in experiment [11]. For the same molecule, the EC50 in [1] came out at 0.33 nM; in experiment [2] it was 4.4 nM; in experiment [3] it was 4.1 nM; in experiment [4] it was 4.1 nM.

B4: NI-205.21G2 (antibody, human IgG1, V domains shown)
VH: QVQLVQSGAEVKKPGASVKVSCKTSGYSFTSYTLHWVRQAPGHRPEWMGWINAAFINTKYSQKFQGRITLTRDTSANIAYLELRSLTTEDTAVYYCARRASGSNGLDVWGQGTTVTVSS
VL: DIQMTQSPSSLSASVGDRITITCQASRDITNYLNWYQQKPGKAPKLLIYDASYLETGVPSTFSGSGSGTHFTLTISSLQPDDFATYYCQQYDSVPLTFGGGTKVEIK
notes: Human-derived
B4: the binding result is given as “no binding” in experiment [1]; “no binding” in [5]; “no binding” in [7]; “no binding” in experiment [12]; “binds” in experiment [13]. In addition, the EC50 in experiment [2] turned out to be 3.6 nM; in [3], 0.24 nM; in experiment [4] it was 0.24 nM.

The values above are taken from patent US20170152308A1 (Biogen, published 2017).
